In experiment [1] the target is BMR–HFBI (diflavin reductase domain of P450 BM3 fused at its C-terminus to hydrophobin HFBI) (Bacillus megaterium | Trichoderma reesei) (UniProt P14779).
For experiment [2] the target is unchanged. This is another data set of the same source.
Experiment [3] has the same target. The source holds these as a separate data set.

In experiment [1], “BMO–HFBI (monooxygenase domain of P450 BM3 fused at its C-terminus to hydrophobin HFBI) (from UniProt P14779 1-472; P52754 23-97)” had a coupling efficiency (product formed per NADPH consumed) in myristic acid hydroxylation, P450:reductase 1:1 (1 μM each) of 57.4% and a coupling efficiency (product formed per NADPH consumed) in myristic acid hydroxylation, P450:reductase 1:5 (1 μM : 5 μM) of 92.7%. Also, the conversion of myristic acid with cofactor regeneration, fivefold molar excess of reductase (1:5 μM), after 2 h in experiment [2] is 97%. In experiment [3], the conversion of myristic acid with cofactor regeneration, equimolar ratio (1:1 μM), time course 2-24 h (49% after 2 h, 78% after 6 h, 99% after 24 h) was determined as 99%.

(Values after PMC4930934.)
